Patent US20220218614A1, “IONIZABLE CATIONIC LIPIDS AND LIPID NANOPARTICLES, AND METHODS OF SYNTHESIS AND USE THEREOF” (Tidal Therapeutics, Inc., priority 2020, published 2022)
“Also recorded” adds a separate entry of the source.

B1: BDSn: anti-CD8 Nanobody, SEQ ID NO: 77 (protein)
VHH: EVQLVESGGGLVQAGGSLRLSCAASGSTFSDYGVGWFRQAPGKGREFVADIDWNGEHTSYADSVKGRFATSRDNAKNTAYLQMNSLKPEDTAVYYCAADALPYTVRKYNYWGQGTQVTVSSGGCGGHHHHHH
modifications: conjugate
B2: OKT8: anti-CD8 Fab, SEQ ID NO: 8 and 9 (antibody)
heavy: QVQLVQSGAEDKKPGASVKVSCKASGFNIKDTYIHWVRQAPGQGLEWMGRIDPANDNTLYASKFQGRVTITADTSSNTAYMELSSLRSEDTAVYYCGRGYGYYVFDHWGQGTTVTVSSASTKGPSVFPLAPSSKSTSGGTAALGCLVKDYFPEPVTVSWNSGALTSGVHTFPAVLQSSGLYSLSSVVTVPSSSLGTQTYICNVNHKPSNTKVDKKVEPKSSDKTHTC
light: DIVMTQSPSSLSASVGDRVTITCRTSRSISQYLAWYQEKPGKAPKLLIYSGSTLQSGVPSRFSGSGSGTDFTLTISSLQPEDFATYYCQQHNENPLTFGQGTKVEIKRTVAAPSVFIFPPSDEQLKSGTASVVCLLNNFYPREAKVQWKVDNALQSGNSQESVTEQDSKDSTYSLSSTLTLSKADYEKHKVYACEVTHQGLSSPVTKSFNRGES
B3: Teplizumab: anti-CD3 Teplizumab bDS Fab, SEQ ID NO: 54 and 55 (antibody)
heavy: QVQLVQSGGGVVQPGRSLRLSCKASGYTFTRYTMHWVRQAPGKGLEWIGYINPSRGYTNYNQKVKDRFTISRDNSKNTAFLQMDSLRPEDTGVYFCARYYDDHYCLDYWGQGTPVTVSSASTKGPSVFPLAPSSKSTSGGTAALGCLVKDYFPEPVTVSWNSGALTSGVHTCPAVLQSSGLYSLSSVVTVPSSSLGTQTYICNVNHKPSNTKVDKKVEPKSSDKTHTCHHHHHH
light: DIQMTQSPSSLSASVGDRVTITCSASSSVSYMNWYQQTPGKAPKRWIYDTSKLASGVPSRFSGSGSGTDYTFTISSLQPEDIATYYCQQWSSNPFTFGQGTKLQITRTVAAPSVFIFPPSDEQLKSGTASVVCLLNNFYPREAKVQWKVDNALQSGNSQESVTEQDSKDSTYSLCSTLTLSKADYEKHKVYACEVTHQGLSSPVTKSFNRGES

Experiments:
Format in all cases: cell-based
[1] = system: human CD3 T cells; assay: Transfection of human CD3 T cells (CD8 and CD4 subsets) with Fab/Nb-targeted LNPs; details: targeted Lipid 8 LNP (Lipid 5 in Example 43), GFP mRNA approximately 2.5 μg/mL, approximately 24 hr
Method: LNPs were prepared using the mixing process described in Example 6, the buffer exchange process described below in Example 21. Using methods similar to Example 12, hSP34 and TRX2 Fab-lipid conjugates and a non-T cell specific anti-HER2 lipid-conjugate (Nellis D F, Ekstrom D L, Kirpotin D B, Zhu J, Andersson R, Broadt T L, Ouellette T F, Perkins S C, Roach J M, Drummond D C, Hong K, Marks J D, Park J W and Giardina S L (2005) Preclinical manufacture of an anti-HER2 scFv-PEG-DSPE, liposome-inserting conjugate. 1. Gram-scale production and purification. Biotechnol Prog 21:205-220) were post-inserted at various densities (SP34 0.25-17 g/mol; TRX2 0.25-9 g/mol; SP34+TRX2 0.25-9 g/mol each conjugate; anti-HER2 17 g/mol) into LNPs containing Lipid 8 and anti-CD20 targeting CART mRNA. Transfections were performed with human CD3 T cells at approximately 2.5 μg/mL mRNA for approximately 24 hr. For FACS analysis T cells were stained with M1 antibody (Sigma, F3040) that bind a N-terminus FLAG-tag variant sequence on the TTR-023 CAR (sequence provided below) in addition to staining for CD69 (Biolegend, 310930) and CD4 (Biolegend, 344648) to differentiate CD8 from CD4 cells.
LNPs were prepared using the mixing process described in Example 6, the buffer exchange process described in Example 21. Using methods similar to Example 12, hSP34, TRX2, and Ibalizumab Fab-lipid conjugates and a non-T cell specific anti-HER2 lipid-conjugate were post-inserted at various densities (specified in FIGS. 20A and 20B into LNPs containing Lipid 8 and Cy5/GFP mRNA. Transfections were performed with human CD3 T cells at approximately 2.5 μg/mL mRNA for approximately 24 hr and stained for CD69 (Biolegend, 310930) and CD4 (Biolegend, 344648) to differentiate CD8 from CD4 cells by FACS analysis.
LNPs were prepared using the mixing process described in Example 6, the buffer exchange process described in Example 21. Conjugates were generated using a method similar to that of Example 4 except 0.025, 0.1, 0.5 mM TCEP was used for hSP34 DS, 0.025, 0.2, 2 mM TCEP was used for hSP34-hlam NoDS (interchain disulfide knockout) for reduction prior to conjugation and the conjugation reactions were performed at 37 C for 2 hr. SDS-PAGE (FIGS. 65A, 65B) was performed using the manufacturers recommended conditions with 1 ug of protein (Thermo, 4-12% Bis-Tris MiniGel). RP-HPLC (FIGS. 65C, 65D) was performed using an Agilent 300 SB-C8 at 0.5 mL/min with a column temperature of 60° C., Mobile Phase A: Water with 0.1% TFA, Mobile Phase B: Acetonitrile with 0.1% TFA, Gradient % B: 0 min 5%, 1 min 5%, 6.5 min 95%, 8 min 95% injecting 10 ul with a target of 1-25 ug of protein. Using methods similar to Example 12, ant-CD3 hSP34 (with and without natural interchain disulfide, DS (with interchain disulfide) vs. NoDS (without interchain disulfide), see sequences below) PEG-lipid conjugated Fabs were post-inserted at various Fab densities (6, 12, 17 g Fab/mol total lipid) into LNPs containing Lipid 8 and Cy5/GFP mRNA. Transfections were performed with human CD3 T cells at approximately 2.5 μg/mL mRNA for approximately 24 hr. Levels of transfection of CD3 T cells was measured by flow cytometry.
LNPs were prepared using the mixing process described in Example 6, the buffer exchange process described in Example 21. Conjugates were generated using a method similar to that of Example 4 except 0.1 mM TCEP was used for reduction prior to conjugation and the conjugation reaction was performed at 37 C for 2 hr. […]

[2] = system: IFNγ; assay: Human IFNγ ELISA of T cell culture supernatants after LNP transfection; details: T cells approximately 24 hr after targeted LNPs at approximately 2.5 μg/mL mRNA
Method: (§1) LNPs were prepared using the mixing process described in Example 6, the buffer exchange process described in Example 21. hSP34 and TRX2 Fab-lipid conjugates generated from methods described in Example 4 and a non-T cell specific anti-HER2 lipid-conjugate (Nellis D F, Ekstrom D L, Kirpotin D B, Zhu J, Andersson R, Broadt T L, Ouellette T F, Perkins S C, Roach J M, Drummond D C, Hong K, Marks J D, Park J W and Giardina S L (2005) Preclinical manufacture of an anti-HER2 scFv-PEG-DSPE, liposome-inserting conjugate. 1. Gram-scale production and purification. Biotechnol Prog 21:205-220) were post-inserted at various densities (SP34 0.6-17 g/mol; TRX2 3-9 g/mol; anti-HER2 17 g/mol) into LNPs containing Lipid 8, Cy5 labeled GFP mRNA and GFP mRNA (1:9 Cy5:GFP mass ratio) by adding conjugate and LNPs together and heating the solution without mixing in a thermal cycler at 60 C for 60 min and cooled to 4° C. for 3-5 min. […] After transfection, LNP binding efficiency (Cy5) and transfection efficiency (GFP) was evaluated by flow cytometry. Supernatants were measured for human IFNγ concentration using a commercially available ELISA kit under manufacturers recommended conditions (R&D Systems Duoset).
IFN-γ was assayed using an R&D Duoset […] ELISA kit, PN DY285B. […] Optical density at 450 nm was read on a Spectramax M5 plate reader. […]

[3] = system: human CD8 T cells; assay: Transfection of human CD8 T cells with Fab-targeted Cy5/GFP mRNA LNPs; details: Lipid 8 LNP, Cy5/GFP mRNA approximately 2.5 μg/mL, approximately 24 hr, Fab conjugate post-inserted
Method: as §1, with “Duoset). […]” for “Duoset).”

| Molecule | % GFP transfection and GFP expression (MFI) of CD8 and CD4 T cells, in words [1] | IFNγ secretion into supernatant, in words [2] | transfection (% GFP+, GFP MFI) and binding (% Cy5+, Cy5 MFI), in words [3] |
| --- | --- | --- | --- |
| B1 | higher % transfection (FIG. 73A) and GFP expression levels (FIG. 73B) than anti-CD8 TRX2; also recorded: transfection and translation was only observed in the CD8 T cell population | did not mediate substantial IFNγ secretion levels over non-targeted mutOKT8 Fab |  |
| B2 |  |  | high levels of particle binding |
| B3 | lower levels of GFP expression | higher levels of IFNγ secretion than SP34 |  |
